From article PMC9409278, “Conformational Changes of α-Crystallin Proteins Induced by Heat Stress” (International Journal of Molecular Sciences, 2022)

Target: the molecule itself
Assay: SEC; HiPrep Sephacryl S-300 HR 16/60 column, 20 mM phosphate buffer, pH 7.4, 150 mM NaCl; each crystallin alone

B1: αB crystallin (natural protein, human, UniProt P02511 1-175, looked up)
chain: MDIAIHHPWIRRPFFPFHSPSRLFDQFFGEHLLESDLFPTSTSLSPFYLRPPSFLRAPSWFDTGLSEMRLEKDRFSVNLDVKHFSPEELKVKVLGDVIEVHGKHEERQDEHGFISREFHRKYRIPADVDPLTITSSLSSDGVLTVNGPRKQVSGPERTIPITREEKPAVTAAPKK
notes: αB crystallin, human, open reading frame of the full-length gene in pET28; Homo-oligomer in solution; No removal of the His tag is mentioned; also called alpha-B crystallin; source: E. coli BL21(DE3), purified (Ni-NTA, size-exclusion chromatography)
binding result: binds
